This series concerns the molecule itself. Kind of series: cryo-EM structure.

The stoichiometry N is a count of units in the complex or per binding partner.

B1: mature wild-type S. cerevisiae PIM1 lacking the mitochondrial targeting sequence (Met182 – Asp1133) (enzyme, UniProt P36775 182-1133, looked up)
chain: MLALPIARRPLFPGFYKAVVISDERVMKAIKEMLDRQQPYIGAFMLKNSEEDTDVITDKNDVYDVGVLAQITSAFPSKDEKTGTETMTALLYPHRRIKIDELFPPNEEKEKSKEQAKDTDTETTVVEDANNPEDQESTSPATPKLEDIVVERIPDSELQHHKRVEATEEESEELDDIQEGEDINPTEFLKNYNVSLVNVLNLEDEPFDRKSPVINALTSEILKVFKEISQLNTMFREQIATFSASIQSATTNIFEEPARLADFAAAVSAGEEDELQDILSSLNIEHRLEKSLLVLKKELMNAELQNKISKDVETKIQKRQREYYLMEQLKGIKRELGIDDGRDKLIDTYKERIKSLKLPDSVQKIFDDEITKLSTLETSMSEFGVIRNYLDWLTSIPWGKHSKEQYSIPRAKKILDEDHYGMVDVKDRILEFIAVGKLLGKVDGKIICFVGPPGVGKTSIGKSIARALNRKFFRFSVGGMTDVAEIKGHRRTYIGALPGRVVQALKKCQTQNPLILIDEIDKIGHGGIHGDPSAALLEVLDPEQNNSFLDNYLDIPIDLSKVLFVCTANSLETIPRPLLDRMEVIELTGYVAEDKVKIAEQYLVPSAKKSAGLENSHVDMTEDAITALMKYYCRESGVRNLKKHIEKIYRKAALQVVKKLSIEDSPTSSADSKPKESVSSEEKAENNAKSSSEKTKDNNSEKTSDDIEALKTSEKINVSISQKNLKDYVGPPVYTTDRLYETTPPGVVMGLAWTNMGGCSLYVESVLEQPLHNCKHPTFERTGQLGDVMKESSRLAYSFAKMYLAQKFPENRFFEKASIHLHCPEGATPKDGPSAGVTMATSFLSLALNKSIDPTVAMTGELTLTGKVLRIGGLREKAVAAKRSGAKTIIFPKDNLNDWEELPDNVKEGLEPLAADWYNDIFQKLFKDVNTKEGNSVWKAEFEILDAKKEKD
Consider B1, for which the “stoichiometry N” value came out at 6.

For the origin of these results see doi:10.1101/2021.11.24.469940 (bioRxiv, 2021).
